We go through three proteins from publication PMC10482962, “Structural and functional analysis of aquaporin-2 mutants involved in nephrogenic diabetes insipidus” (Scientific Reports, 2023).

The stoichiometry N is the number of molecules, sites or subunits per partner or assembly.

The nature of data set [1]: size-exclusion chromatography. The following applies: glycan lost; control: wild-type AQP2 (same construct). For orientation: Size exclusion chromatography separates by hydrodynamic size, large species first.
Data set [2] deals with the molecule itself. Briefly: SEC; size-exclusion chromatography of the purified protein immediately prior to reconstitution into liposomes; peak integrals quantified in % of the total population to estimate the oligomeric states.

B1: aquaporin-2 (AQP2): T125M (protein)
parent chain: MWELRSIAFSRAVFAEFLATLLFVFFGLGSALNWPQALPSVLQIAMAFGLGIGTLVQALGHISGAHINPAVTVACLVGCHVSVLRAAFYVAAQLLGAVAGAALLHEITPADIRGDLAVNALSNSTTAGQAVTVELFLTLQLVLCIFASTDERRGENPGTPALSIGFSVALGHLLGIHYTGCSMNPARSLAPAVVTGKFDDHWVFWIGPLVGAILGSLLYNYVLFPPAKSLSERLAVLKGLEPDTDWEEREVRRRQSVELHSPQSLPRGTKA
Turning to B1, in data set [1], the oligomerisation entry was “no change”.

B2: human aquaporin-2 (AQP2), truncated after residue 242 (domain or fragment, UniProt P41181 1-242, looked up)
chain: MWELRSIAFSRAVFAEFLATLLFVFFGLGSALNWPQALPSVLQIAMAFGLGIGTLVQALGHISGAHINPAVTVACLVGCHVSVLRAAFYVAAQLLGAVAGAALLHEITPADIRGDLAVNALSNSTTAGQAVTVELFLTLQLVLCIFASTDERRGENPGTPALSIGFSVALGHLLGIHYTGCSMNPARSLAPAVVTGKFDDHWVFWIGPLVGAILGSLLYNYVLFPPAKSLSERLAVLKGLEP
notes: aquaporin-2 (AQP2), human, C-terminal truncation at P242; the construct used for the structure PDB 4NEF; His-tag removed by TEV protease before SEC; also called wild-type AQP2; hAQP2; source: Pichia pastoris X33, purified (IMAC, TEV cleavage, second IMAC, SEC); not shown: His8, N-terminal, cleaved
As to B2, in data set [2], the “stoichiometry N” value is 4.

B3: human aquaporin-2 (AQP2) T125M, truncated after residue 242 (domain or fragment, UniProt P41181 1-242, looked up)
chain: MWELRSIAFSRAVFAEFLATLLFVFFGLGSALNWPQALPSVLQIAMAFGLGIGTLVQALGHISGAHINPAVTVACLVGCHVSVLRAAFYVAAQLLGAVAGAALLHEITPADIRGDLAVNALSNSMTAGQAVTVELFLTLQLVLCIFASTDERRGENPGTPALSIGFSVALGHLLGIHYTGCSMNPARSLAPAVVTGKFDDHWVFWIGPLVGAILGSLLYNYVLFPPAKSLSERLAVLKGLEP
notes: aquaporin-2 (AQP2), human, C-terminal truncation at P242, with the recessive NDI patient mutation T125M; Mutation identified in patients with autosomal recessive NDI; same construct limits as m1; source: Pichia pastoris X33, purified (IMAC, TEV cleavage, second IMAC, SEC); not shown: His8, N-terminal, cleaved
For the protein B3, the “stoichiometry N” value in data set [2] was 4.
